Laboratory results from US7056715B1, “GST sequences from soybean and their use in the production of herbicide resistant plants” (Syngenta Limited, priority 1999, dated 2006).

Experiments:
Assay type in all cases: biochemical
[1] = GST activity of purified recombinant protein toward acifluorfen; conditions: recombinant enzyme, ±SE, n=2; for GST activity toward acifluorfen, GSH: thiol GSH; for GST activity toward acifluorfen, hGSH: thiol hGSH
Method: (§1) 4.2 Nde I or Nco I sites were introduced as appropriate into the 5′ end cDNAs encoding glutathione S-transferase and Bam H1 at the 3′ end using PCR. The cDNA was then cloned into pET-24a or pET-24d as appropriate. The resulting plasmids were introduced into E. coli BL21 (DE3) using standard bacterial transformation procedures known to the skilled artisan. Expression and purification of the recombinant GST was performed using anion-exchange chromatography and S-Hexyl-glutathione affinity chromatography according to the methods known in the art (for example, Skipsey et al., 1997). GST activity of the purified recombinant protein toward CDNB, acetochlor, acifluorfen, chlorimuron-ethyl, fluorodifen. fomesafen and metolachlor in the presence of both glutathione and homoglutathione was performed via assays which are described in Andrews et al., 1997 and Skipsey et al., 1997.

[2] = GST activity of purified recombinant protein toward acetochlor; conditions: recombinant enzyme, ±SE, n=2; for GST activity toward acetochlor, GSH: thiol GSH; for GST activity toward acetochlor, hGSH: thiol hGSH
Method: as §1

[3] = GST activity of purified recombinant protein toward fluorodifen; conditions: recombinant enzyme, ±SE, n=2; for GST activity toward fluorodifen, GSH: thiol GSH; for GST activity toward fluorodifen, hGSH: thiol hGSH
Method: as §1

[4] = GST activity of purified recombinant protein toward metolachlor; conditions: recombinant enzyme, ±SE, n=2; for GST activity toward metolachlor, GSH: thiol GSH; for GST activity toward metolachlor, hGSH: thiol hGSH
Method: as §1

[5] = GST activity of purified recombinant protein toward fomesafen; conditions: recombinant enzyme, ±SE, n=2; for GST activity toward fomesafen, GSH: thiol GSH; for GST activity toward fomesafen, hGSH: thiol hGSH
Method: as §1

[6] = GST activity of purified recombinant protein toward CDNB; conditions: recombinant enzyme, ±SE, n=2; for GST activity toward CDNB, GSH: thiol GSH; for GST activity toward CDNB, hGSH: thiol hGSH
Method: as §1

Molecule	GST activity toward acifluorfen, GSH [1]	GST activity toward acifluorfen, hGSH [1]	GST activity toward acetochlor, GSH [2]	GST activity toward fluorodifen, GSH [3]	GST activity toward fluorodifen, hGSH [3]	GST activity toward metolachlor, GSH [4]	GST activity toward metolachlor, hGSH [4]	GST activity toward fomesafen, GSH [5]	GST activity toward fomesafen, hGSH [5]	GST activity toward CDNB, GSH [6]	GST activity toward CDNB, hGSH [6]	GST activity toward acetochlor, hGSH [2]
GST 3.3: Recombinant soybean Glutathione-S-transferase 3.3, SEQ ID No. 10; may also be referred to as GST 3.6 (protein, Glycine max) MAERDLRLLGAWFSPFALRVQIALNLKGLDYEVVEETLNPKSELLLKSNPVHKKIPVFFHGDKVICESAIIVEYIDEVWSNNALSILPQNAYDRANARFWVSYIDDKWLTSLKSVLATEDDEAKKLHFEQAEEVLEKVEEVFNKCSEGKAYFGGDTIGFVDIGFGSFLSFIRVSENMNERKLLDETKYPGLTLWAETFAADPAVKGLLPETEKLVEFAKILQLKWAAAAAAK	123.0 pkat mg-1	1350 pkat mg-1	420.0 pkat mg-1	360.5 pkat mg-1	602.5 pkat mg-1	312.0 pkat mg-1	264.5 pkat mg-1	110 pkat mg-1	6250 pkat mg-1	82.9 nkat mg-1	189.0 nkat mg-1	–
GST 2.6: Recombinant soybean Glutathione-S-transferase 2.6, SEQ ID No. 7 (protein, Glycine max) MSSSQEEVTLLGVVGSPFLHRVQIALKLKGVEYKYLEDDLNNKSDLLLKYNPVYKMIPVLVHNEKPISESLVIVEYIDDTWKNNPILPSDPYQRALARFWAKFIDDKCVVPAWKSAFMTDEKEKEKAKEELFEALSFLENELKGKFFGGEEFGFVDIAAVLIPIIQEIAGLQLFTSEKFPKLSKWSQDFHNHPVVNEVMPPKDQLFAYFKARAQSFVAKRKN	–	31.1 pkat mg-1	352.5 pkat mg-1	–	19.3 pkat mg-1	142.0 pkat mg-1	95.5 pkat mg-1	27.1 pkat mg-1	350.5 pkat mg-1	18.7 nkat mg-1	19.0 nkat mg-1	391.0 pkat mg-1
GST 3.1: Recombinant soybean Glutathione-S-transferase 3.1, SEQ ID No. 8 (protein, Glycine max) MAEQDKVILHGMWASPYAKRVELALNFKGIPYEYVEEDLRNKSDLLLKYNPVHKKVPVLVHNGKAIAESMVILEYIDETWKDGPKLLPSDSYKRAQARFWCHFIQDQLMESTFLVVKTDGEAQQKAIDHVYEKLKVLEDGMKTYLGEGNAIISGVENNFGILDIVFCALYGAYKAHEEVIGLKFIVPEKFPVLFSWLMAIAEVEAVKIATPPHEKTVGILQLFRLSALKSSSATE	152.5 pkat mg-1	238.5 pkat mg-1	190.5 pkat mg-1	1150 pkat mg-1	1350 pkat mg-1	177.5 pkat mg-1	67.5 pkat mg-1	213.6 pkat mg-1	484.6 pkat mg-1	59.2 nkat mg-1	59.2 nkat mg-1	11.0 pkat mg-1
